± gives the uncertainty stated by the source.
B1: Chromodomain-helicase-DNA-binding protein 7, residues 2564 to 2605; numbered along this chain, Q9P2D1 (parent)
chain: DPDTRIPVINLEDGTRLVGEDAPKNKDLVEWLKLHPTYTVDM

Variants of: B1
Assay: abundance fitness (aPCA) (normalised: wild type 0, dead -1); higher = more abundant; growth selection in yeast, the domain comes from the species named
Conditions: Homo sapiens

Row | Variant | abundance fitness
1 | DPDTRIPVINCEDGTRLVGEDAPKNKDLVEWLKLHPTYTVDM [L11C] | -0.195 ± 0.11
2 | DPDTRIPVLNLEDGTRLVGEDAPKNKDLVEWLKLHPTYTVDM [I9L] | 0.026 ± 0.078
3 | DPDTRIPVVNLEDGTRLVGEDAPKNKDLVEWLKLHPTYTVDM [I9V] | 0.04 ± 0.053
4 | DPDTRIPVSNLEDGTRLVGEDAPKNKDLVEWLKLHPTYTVDM [I9S] | -0.098 ± 0.091
5 | DPDTRIPVANLEDGTRLVGEDAPKNKDLVEWLKLHPTYTVDM [I9A] | -0.111 ± 0.1
6 | DPDTRIPVCNLEDGTRLVGEDAPKNKDLVEWLKLHPTYTVDM [I9C] | -0.123 ± 0.09
7 | DPDTRIPVGNLEDGTRLVGEDAPKNKDLVEWLKLHPTYTVDM [I9G] | -0.159 ± 0.063
8 | DPDTRIPVENLEDGTRLVGEDAPKNKDLVEWLKLHPTYTVDM [I9E] | -0.088 ± 0.21
9 | DPDTRIPVTNLEDGTRLVGEDAPKNKDLVEWLKLHPTYTVDM [I9T] | -0.012 ± 0.095
10 | DPDTRIPVDNLEDGTRLVGEDAPKNKDLVEWLKLHPTYTVDM [I9D] | -0.345 ± 0.12
11 | DPDTRIPVFNLEDGTRLVGEDAPKNKDLVEWLKLHPTYTVDM [I9F] | -0.075 ± 0.1
12 | DPDTRIPVQNLEDGTRLVGEDAPKNKDLVEWLKLHPTYTVDM [I9Q] | -0.032 ± 0.12
13 | DPDTRIPVRNLEDGTRLVGEDAPKNKDLVEWLKLHPTYTVDM [I9R] | 0.064 ± 0.12
14 | DPDTRIGVINLEDGTRLVGEDAPKNKDLVEWLKLHPTYTVDM [P7G] | 0.227 ± 0.096
15 | DPDTRIAVINLEDGTRLVGEDAPKNKDLVEWLKLHPTYTVDM [P7A] | 0.067 ± 0.13
16 | DPDTRINVINLEDGTRLVGEDAPKNKDLVEWLKLHPTYTVDM [P7N] | -0.145 ± 0.22
17 | DPDTRIFVINLEDGTRLVGEDAPKNKDLVEWLKLHPTYTVDM [P7F] | -1.07 ± 0.27
18 | DPDTRIQVINLEDGTRLVGEDAPKNKDLVEWLKLHPTYTVDM [P7Q] | -0.691 ± 0.44
19 | DPDTRIDVINLEDGTRLVGEDAPKNKDLVEWLKLHPTYTVDM [P7D] | 0.133 ± 0.13
20 | DPDTRICVINLEDGTRLVGEDAPKNKDLVEWLKLHPTYTVDM [P7C] | -0.347 ± 0.2

Row | Variant | abundance fitness
21 | DPDTRITVINLEDGTRLVGEDAPKNKDLVEWLKLHPTYTVDM [P7T] | -0.046 ± 0.34
22 | DPDTRIKVINLEDGTRLVGEDAPKNKDLVEWLKLHPTYTVDM [P7K] | 0.082 ± 0.13
23 | DPDTRIMVINLEDGTRLVGEDAPKNKDLVEWLKLHPTYTVDM [P7M] | -0.297 ± 0.12
24 | DPDTRIVVINLEDGTRLVGEDAPKNKDLVEWLKLHPTYTVDM [P7V] | -0.238 ± 0.12
25 | DPDTRIRVINLEDGTRLVGEDAPKNKDLVEWLKLHPTYTVDM [P7R] | 0.064 ± 0.14
26 | DPDTRDPVINLEDGTRLVGEDAPKNKDLVEWLKLHPTYTVDM [I6D] | -0.201 ± 0.17
27 | DPDTRNPVINLEDGTRLVGEDAPKNKDLVEWLKLHPTYTVDM [I6N] | -0.419 ± 0.31
28 | DPDTREPVINLEDGTRLVGEDAPKNKDLVEWLKLHPTYTVDM [I6E] | -0.276 ± 0.11
29 | DPDTRLPVINLEDGTRLVGEDAPKNKDLVEWLKLHPTYTVDM [I6L] | -0.697 ± 0.22
30 | DPDTRFPVINLEDGTRLVGEDAPKNKDLVEWLKLHPTYTVDM [I6F] | -0.283 ± 0.15
31 | DPDTRSPVINLEDGTRLVGEDAPKNKDLVEWLKLHPTYTVDM [I6S] | -0.189 ± 0.44
32 | DPDTRHPVINLEDGTRLVGEDAPKNKDLVEWLKLHPTYTVDM [I6H] | -0.133 ± 0.23
33 | DPDTRYPVINLEDGTRLVGEDAPKNKDLVEWLKLHPTYTVDM [I6Y] | -0.699 ± 0.21
34 | DPDTRVPVINLEDGTRLVGEDAPKNKDLVEWLKLHPTYTVDM [I6V] | 0.262 ± 0.1
35 | VPDTRIPVINLEDGTRLVGEDAPKNKDLVEWLKLHPTYTVDM [D1V] | -0.184 ± 0.063
36 | YPDTRIPVINLEDGTRLVGEDAPKNKDLVEWLKLHPTYTVDM [D1Y] | -0.298 ± 0.12
37 | GPDTRIPVINLEDGTRLVGEDAPKNKDLVEWLKLHPTYTVDM [D1G] | -0.901 ± 0.1
38 | SPDTRIPVINLEDGTRLVGEDAPKNKDLVEWLKLHPTYTVDM [D1S] | -0.237 ± 0.081
39 | RPDTRIPVINLEDGTRLVGEDAPKNKDLVEWLKLHPTYTVDM [D1R] | -1 ± 0.11
40 | LPDTRIPVINLEDGTRLVGEDAPKNKDLVEWLKLHPTYTVDM [D1L] | -0.43 ± 0.062

Row | Variant | abundance fitness
41 | DPDTGIPVINLEDGTRLVGEDAPKNKDLVEWLKLHPTYTVDM [R5G] | -0.374 ± 0.082
42 | DPDTFIPVINLEDGTRLVGEDAPKNKDLVEWLKLHPTYTVDM [R5F] | -0.451 ± 0.083
43 | DPDTQIPVINLEDGTRLVGEDAPKNKDLVEWLKLHPTYTVDM [R5Q] | -0.493 ± 0.25
44 | DPDTNIPVINLEDGTRLVGEDAPKNKDLVEWLKLHPTYTVDM [R5N] | -0.349 ± 0.081
45 | DPDTMIPVINLEDGTRLVGEDAPKNKDLVEWLKLHPTYTVDM [R5M] | -0.242 ± 0.1
46 | DPDTKIPVINLEDGTRLVGEDAPKNKDLVEWLKLHPTYTVDM [R5K] | 0.124 ± 0.095
47 | DPDTVIPVINLEDGTRLVGEDAPKNKDLVEWLKLHPTYTVDM [R5V] | -0.372 ± 0.13
48 | DPDTPIPVINLEDGTRLVGEDAPKNKDLVEWLKLHPTYTVDM [R5P] | -0.004 ± 0.22
49 | DPDTIIPVINLEDGTRLVGEDAPKNKDLVEWLKLHPTYTVDM [R5I] | -0.39 ± 0.14
50 | DPDTSIPVINLEDGTRLVGEDAPKNKDLVEWLKLHPTYTVDM [R5S] | -0.303 ± 0.081
51 | DPDTLIPVINLEDGTRLVGEDAPKNKDLVEWLKLHPTYTVDM [R5L] | -0.844 ± 0.26
52 | DPDTDIPVINLEDGTRLVGEDAPKNKDLVEWLKLHPTYTVDM [R5D] | -0.709 ± 0.16
53 | DPDTTIPVINLEDGTRLVGEDAPKNKDLVEWLKLHPTYTVDM [R5T] | -0.244 ± 0.1
54 | DPDTWIPVINLEDGTRLVGEDAPKNKDLVEWLKLHPTYTVDM [R5W] | -0.906 ± 0.2
55 | DPDTCIPVINLEDGTRLVGEDAPKNKDLVEWLKLHPTYTVDM [R5C] | -0.27 ± 0.23
56 | DPRTRIPVINLEDGTRLVGEDAPKNKDLVEWLKLHPTYTVDM [D3R] | -0.256 ± 0.055
57 | DPATRIPVINLEDGTRLVGEDAPKNKDLVEWLKLHPTYTVDM [D3A] | -0.283 ± 0.052
58 | DPWTRIPVINLEDGTRLVGEDAPKNKDLVEWLKLHPTYTVDM [D3W] | -0.53 ± 0.11
59 | DPITRIPVINLEDGTRLVGEDAPKNKDLVEWLKLHPTYTVDM [D3I] | -0.54 ± 0.094
60 | DPMTRIPVINLEDGTRLVGEDAPKNKDLVEWLKLHPTYTVDM [D3M] | -0.063 ± 0.059
